Source: CN110606891A

Molecular target: 鼠CLDN18.2 (mCLDN18.2), claudin-18 isoform A2.1 [Mus musculus], NP_001181850.1 (mouse) (UniProt P56857)
Assay: cell ELISA on mCLDN18.2+ cells (Table 23), background

UniProt P56857, sequence (P56857 other isoform, or with tags, fused parts or gaps, form in doubt): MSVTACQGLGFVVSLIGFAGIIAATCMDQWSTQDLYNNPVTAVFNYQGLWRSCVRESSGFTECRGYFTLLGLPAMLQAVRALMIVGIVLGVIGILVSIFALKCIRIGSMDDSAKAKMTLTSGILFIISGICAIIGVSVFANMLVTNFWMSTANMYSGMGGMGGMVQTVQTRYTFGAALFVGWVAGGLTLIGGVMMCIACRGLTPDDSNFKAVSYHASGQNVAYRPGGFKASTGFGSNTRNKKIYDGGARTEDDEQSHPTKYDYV

Substance Neg IgG (和靶点没有结合的非特异性抗体) (antibody) has an Emax of 0.19.
